Laboratory results published in the nanobody polyreactivity screen of Harvey et al. (2022).

Assay: yeast display, Sf9 membrane polyspecificity reagent, FACS + sequencing; frameworks hold sequencing errors
Method in brief: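 In a synthetic yeast display library (Saccharomyces cerevisiae BJ5465), nanobody expression was induced with galactose for 36–48 hours. FACS gates were set low and high (top ~1%) using anti-HA fluorescence for expression and streptavidin fluorescence for binding of the Sf9 membrane reagent. Each polyreactivity label is drawn from the gate of origin.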

Row | Sequence | polyreactivity (PSR sort gate)
1 | QVQLVESGGGLVQAGGSLRLSCAASGRTFGRYAMGWYRQAPGKERELVATISVSSGSTYYADSVKGRFTISRDTAKNTVYLQMNSLKPEDTAVYYCNAVYGRQYRGYNYKYYYWGQGTQVTVSS | high polyreactivity
2 | QVQLVESGGGLVQAGGSLRLSCAASGRTFGRYAMGWYRQAPGKERELVATITSGGSTNYADSVKGRFTITRDNAKNTVYLQMNSLKPEDTAVYYCAAEFSPSRWAYSEGALRYNYWGQGTQVTVSS | low polyreactivity
3 | QVQLVESGGGLVQAGGSLRLSCAASGRTFGRYAMGWYRQAPWKERELVAVINGGGSTYYADSVKGRFTISRDNAKNTVYLQMNSLKPEDTAVDYCAVGGYTRTGGWFDYWGQGTQVTVSS | high polyreactivity
4 | QVQLVESGGGLVQAGGSLRLSCAASGRTFGRYAMGWYRQATGKERELVAAISTGGRTYYADSVKGRFTISRDNAKNTVYLQMNSLKPEDTEVYYCNRVVVVGILEMGYWGQGTQVTVSS | low polyreactivity
5 | QVQLVESGGGLVQAGGSLRLSCAASGRTFGRYARGWYRQAPGKETELVAAIRSGASTYYADSVKGRFTISRDNAKNTVYLQKNSLKPEDTAVYYCAVDTLQGARVTSPSGDYDYWGQGTQVTVSS | low polyreactivity
6 | QVQLVESGGGLVQAGGSLRLSCAASGRTFGRYVMGWYRQAPGKERELVAAITSSSSSTYADSVKGRFTISRDNAKNTVHLEMNSLKPEDTAVYYCNKRFPSRHRPEYDYWGQGTQVTVSS | high polyreactivity
7 | QVQLVESGGGLVQAGGSLRLSCAASGRTFGSNAMGWYRQAPGKERELVAAISFSGGSTYYADSVKGRFTISRDNAKNTVYLQMNSLKPEDTAVYYCAAEYPQKGDRGSRRRIDGYWGQGTQVTVSS | high polyreactivity
8 | QVQLVESGGGLVQAGGSLRLSCAASGRTFGSNAMGWYRQAPGKERELVAAISLRGGRTYYADSVKGRFTISRDNAKNTVYLQMNSLKPEDTAVYYCNAVHYLYGARSRLTYDYWGQGTQVTVSS | high polyreactivity
9 | QVQLVESGGGLVQAGGSLRLSCAASGRTFGSNAMGWYRQAPGKERELVAVISRRAGSTYADSVKGRFTISRDNAKNTVYLQMNSLKPEDTAVYYCATRWLYHQYYYWGQGTQVTVSS | high polyreactivity
10 | QVQLVESGGGLVQAGGSLRLSCAASGRTFGSYAMGWNRQAPGKERELVAAISSSGGRTYYADSVKGRFTISRDNAKNTVYLQMNSLKPEDTGVYYCNADVQWNIWEYDYWGQGTQVTVSS | high polyreactivity
11 | QVQLVESGGGLVQAGGSLRLSCAASGRTFGSYAMGWYRQAPGKEREFVASITGATTNYADSVKGRFTISRDNAKNTVYLQMNSLKQEDTAVYYCATDVGFGRKQRPHRPGYGYWGQGTQVTVSS | low polyreactivity
12 | QVQLVESGGGLVQAGGSLRLSCAASGRTFGSYAMGWYRQAPGKERELVAAINWSGSSTYYADSVKGRFTISRDNAKNTVYLQMNSLKPEDTAVYYCAATPSFYRSYQGMDYWGQGTQVTVSS | high polyreactivity
13 | QVQLVESGGGLVQAGGSLRLSCAASGRTFGSYAMGWYRQAPGKERELVAAISSGGRTYYADSVKGRFTISRDNAKNTVYLQMNSLKPEDTAVYYCAARLISYKTPGGYNYWGQGTQVTVSS | high polyreactivity
14 | QVQLVESGGGLVQAGGSLRLSCAASGRTFGSYAMGWYRQAPGKERELVAAISVSGDSTFYADSVKGRFTISRDNAKNTVYLQMNSLKQEDTAVYYCAARDYVEFWGQGTQVTVSS | low polyreactivity
15 | QVQLVESGGGLVQAGGSLRLSCAASGRTFGSYAMGWYRQAPGKERELVAAISYRGSTYYADSVKGRFTISRDNAKNTVYLQMNSLKPEDTAVYYCAARSYGGYGYWGQGTQVTVSS | high polyreactivity
16 | QVQLVESGGGLVQAGGSLRLSCAASGRTFGSYVMGWYRQAPGKERELVATISRRGGTTYYADSVKGRYTISRDNAKNTVYLQMNSLKPEDTAVYYCAAKYFGTRYDYWGQGTQVTVSS | high polyreactivity
17 | QVQLVESGGGLVQAGGSLRLSCAASGRTFGTNAMGWYRLAPGKEWELVASISGGTRTNYADSVKGRFTISRDNAKNTVYLQMNSLKPEDTAVYSCAAEVGLPTWYTLPVDDYDYWGQGTQVTVSS | low polyreactivity
18 | QVQLVESGGGLVQAGGSLRLSCAASGRTFGTYDMGWYRQAPGKERELVAGINGSGGSTYYADSVKGRFTISRDNAKNTVYLQMNSLKPEDTAVYYCAADRRFSTYDYWGQGTQVTVSS | high polyreactivity
19 | QVQLVESGGGLVQAGGSLRLSCAASGRTFGVNAMGGYRQAPGKERELVAAISKRGGSTYYADSVKGRFTISRDNAKNTVYLQMNSLKPEDTAVYYCAKDQPHRGPMDYWGQGTQVTVSS | high polyreactivity
20 | QVQLVESGGGLVQAGGSLRLSCAASGRTFGVNAMGWYRQAPGKERELVAVISRSTGSTYYADSVKGRFTISRDNAKNTVYLQMNSLKPEDTAVYYCAAGFWVRGFRRFDYWGQGTQVTVSS | high polyreactivity
21 | QVQLVESGGGLVQAGGSLRLSCAASGRTFGVNAMGWYRQAPRKERELVAAINRGGSTYYADSVKGRFTISRDNAKNTVYLQMISLNPEDTAVYYCAAYVSAVHGISGYWGQGTQVTVSS | low polyreactivity
22 | QVQLVESGGGLVQAGGSLRLSCAASGRTFGVNMGWYRQAPGKERELVAGITSGGSTYYADSVKGRFTISRDNAKNTVYLQMNSLKPEDTAVFYCAKSYRGKWSPYYYWGQGTQVTVSS | high polyreactivity

Row | Sequence | polyreactivity (PSR sort gate)
23 | QVQLVESGGGLVQAGGSLRLSCAASGRTFGVYVMGWSRQAPGKERELVAVITISGGSTYYADSVKGRFTISRDNAKNTVYLQMNSLKPEDTAVYYCAARTYYGYDYWGQGTQVTVSS | high polyreactivity
24 | QVQLVESGGGLVQAGGSLRLSCAASGRTFGWYAMGWYRQAPGKEREFVAVISRSGTNTYYADSVKGRFTISRDNAKNTVYLQMNSLKPEDTAVYYCAAVRSSQSYYYWGQGTQVTVSS | high polyreactivity
25 | QVQLVESGGGLVQAGGSLRLSCAASGRTFGWYTKGWYRQAPGKERELVAAISRSGTSTYYADSVKGRFTISRDNAKNTVYLQMNSLKPEDTAVYYCAAGPWAYGRRHSYYSYGYWGQVTQVTVSS | high polyreactivity
26 | QVQLVESGGGLVQAGGSLRLSCAASGRTFGWYTMGWYRQAPGKEREFVAAISSSDTSTYYADSVKGRFTISRDNAKNTVYLQMNSLKPEDTAVYYCAADPPSWRWFVGYSYDYWGQGTQVTVSS | low polyreactivity
27 | QVQLVESGGGLVQAGGSLRLSCAASGRTFGYNAMGRYRQAPGKERELVAAIRYSGGSTYYADSVKGRFTISRDNAKNTVYLQMNSLKPEDTAVYYCAKESRRYYRGYYYWGQGTQVTVSS | high polyreactivity
28 | QVQLVESGGGLVQAGGSLRLSCAASGRTFGYNAMGWYIQAPGKERELVAAINWSGASTYYADSVKGRFTISRDNAKNTVYLQMNSLKPEDTAVYYCAADYSYIYGFDYWGQGTQVTVSS | low polyreactivity
29 | QVQLVESGGGLVQAGGSLRLSCAASGRTFGYNAMGWYRQAPGKERELVASISWSGGTTYYADSVKGRFTISRDNAKNTVYLQMNSLKPEDTAVYYCAADRQSYVTRLYRSYWGNYWGQGTQVTVSS | high polyreactivity
30 | QVQLVESGGGLVQAGGSLRLSCAASGRTFGYNAMGWYRQAPGKESEFVAAISWSGGRTYYADSVKGRFTISRDNAKNTVYLQMNSLKPEDTAVYYCAAGFGDGPGNGYYTRYSWDDDYWGQGTQVTVSS | low polyreactivity
31 | QVQLVESGGGLVQAGGSLRLSCAASGRTFGYNTMGWYRQAPGKERELVATIRTNGVSTYYADSVKGRFTISRDNAKNTVYLQMNSLKPEDTAVYYCNAPRTRKQKTIYVNAPGNYWGQGTQVTVSS | low polyreactivity
32 | QVQLVESGGGLVQAGGSLRLSCAASGRTFGYNVMGWYRQAPGKERELVAAINRGGGSTYYADSVKGRFTISRDNANNTVYLQMNSLKPEDTAVYYCIKRYRVWFDYWGQGTQVTVSS | high polyreactivity
33 | QVQLVESGGGLVQAGGSLRLSCAASGRTFGYNVMGWYTQAPGKERELVAGISESGGRTYYADSVKGRVTISRDNAKNTVYLQMNSLKPEDTAVYYCAKRYQRASYDYWGQGTQVTVSS | high polyreactivity
34 | QVQLVESGGGLVQAGGSLRLSCAASGRTFGYYALGWYRQAPGKERELVAAISSNTDSTYYADSVKGRFTISRDNEKNTVYLQMNSLKPEDTAVYYCAAEAYSYYPGTYEDDYWGQGTQVTVSS | low polyreactivity
35 | QVQLVESGGGLVQAGGSLRLSCAASGRTFGYYAMGWYRPAPGKERELVAAITSSSSTNYADSVKGRFTISRDNAKNTVYLQMNSLKPEDTAVYYCAAYGYYRSGYRALEGYWGQGTQVTVSS | high polyreactivity
36 | QVQLVESGGGLVQAGGSLRLSCAASGRTFGYYAMGWYRQAPGKEREFVAAIWGGTSTYYADSVKGRFTISRDNAKNTVYLQMNSLKPEDTAVYYCAAEGWLYPTGYSTLHYEYDYWGQGTQVTVSS | low polyreactivity
37 | QVQLVESGGGLVQAGGSLRLSCAASGRTFGYYAMGWYRQAPGKERELVAAISWRGGSTYYADSVKGRFTISRDNAKNTVYLQMNSLKPEDTAVYYCNRAYVYPQGPYPYDYWGQGTQVTVSS | high polyreactivity
38 | QVQLVESGGGLVQAGGSLRLSCAASGRTFGYYAMGWYRQAPGKERELVAALSTSGGSTHYADSVKGRFTISRDNAKNTVSLQMNSLKPEDTAVYYCNARLRTGTPYKYVSYNSWGQGTQVTVSS | high polyreactivity
39 | QVQLVESGGGLVQAGGSLRLSCAASGRTFGYYDMGWYRQAPGKGRELVAAITYSGGNTYYADSVKGRFTISRDNAKITVYLQMNSLKPEDTAVYSCAARSSFFPSYSRYDYWGQGTQVTVSS | high polyreactivity
40 | QVQLVESGGGLVQAGGSLRLSCAASGRTFGYYTMGWYRQAPGKEREYVAAISGSGTITFYADSVKGRFTISRDNAKNTVYLQMNSLKPEDTAVYYCAADYRYGGSRGYRYDYWGQGTQVTVSS | low polyreactivity
41 | QVQLVESGGGLVQAGGSLRLSCAASGRTFHAYAMGWYRQAPGKGRELVAAITRTGTTHYADSVKGRFTISRDNAKNTVYLQMNSLKPEDTAVYYCAAQHVRVDAQFVLQGYDYWGQGTQVTVSS | low polyreactivity
42 | QVQLVESGGGLVQAGGSLRLSCAASGRTFHEYAMGWYRQAPGTERELVADISDGGSTNYADSVKGRFTISRDNAKNTVYLQMNSLKPEDTAVYYCNTDVPSAQYDYWGQGTQVTVSS | low polyreactivity
43 | QVQLVESGGGLVQAGGSLRLSCAASGRTFHGYAMGWYRQAPGKERELVAAINASGGRTYYADSVKGRFTISRDNAKNTVYLQMNSLKPEDTAVYYCAVYSASFRYGLAYDYWGQGTQVTVSS | high polyreactivity
